This note sets out measurements from US20130347134A1, “TRANSGENIC VON WILLEBRAND FACTOR ANIMALS AND USES THEREOF” (priority 2012, published 2013).

For assay [1], the target named is human platelet glycoprotein Ib alpha (GPIb α) on human platelets (human) (UniProt P07359). As to the kind of experiment: blocking in a parallel-plate flow chamber: human whole blood treated with mAb AP-1 perfused over surface-immobilized murine plasma VWF R1326H (the blocked ligand), shear rate 1,600 s^-1; about 4,600 without antibody.
The target is the same in assay [2]. The experiment in a line: cell-based or functional assay.
Assay [3] shares this target. The experiment in a line: blocking in a parallel-plate flow chamber: human whole blood treated with mAb 6D1 perfused over surface-immobilized murine plasma VWF R1326H (the blocked ligand), shear rate 1,600 s^-1; about 4,600 without antibody.
Assay [4] addresses human platelet integrin αIIb β3 on human platelets (human) (UniProt P08514). The experiment in a line: cell-based or functional assay.
The target in assay [5] is human platelet glycoprotein Ib alpha (GPIb α) on human platelets (human) (UniProt P07359). The experiment in a line: translocation of human platelets on immobilized plasma VWF in flow.
The target of assay [6] is murine platelet glycoprotein Ib alpha (GPIb α) on mouse platelets (mouse) (UniProt O35930). The experiment in a line: cell-based or functional assay.
murine platelet glycoprotein Ib alpha (GPIb α) on mouse platelets (mouse), sequence (O35930 17-734): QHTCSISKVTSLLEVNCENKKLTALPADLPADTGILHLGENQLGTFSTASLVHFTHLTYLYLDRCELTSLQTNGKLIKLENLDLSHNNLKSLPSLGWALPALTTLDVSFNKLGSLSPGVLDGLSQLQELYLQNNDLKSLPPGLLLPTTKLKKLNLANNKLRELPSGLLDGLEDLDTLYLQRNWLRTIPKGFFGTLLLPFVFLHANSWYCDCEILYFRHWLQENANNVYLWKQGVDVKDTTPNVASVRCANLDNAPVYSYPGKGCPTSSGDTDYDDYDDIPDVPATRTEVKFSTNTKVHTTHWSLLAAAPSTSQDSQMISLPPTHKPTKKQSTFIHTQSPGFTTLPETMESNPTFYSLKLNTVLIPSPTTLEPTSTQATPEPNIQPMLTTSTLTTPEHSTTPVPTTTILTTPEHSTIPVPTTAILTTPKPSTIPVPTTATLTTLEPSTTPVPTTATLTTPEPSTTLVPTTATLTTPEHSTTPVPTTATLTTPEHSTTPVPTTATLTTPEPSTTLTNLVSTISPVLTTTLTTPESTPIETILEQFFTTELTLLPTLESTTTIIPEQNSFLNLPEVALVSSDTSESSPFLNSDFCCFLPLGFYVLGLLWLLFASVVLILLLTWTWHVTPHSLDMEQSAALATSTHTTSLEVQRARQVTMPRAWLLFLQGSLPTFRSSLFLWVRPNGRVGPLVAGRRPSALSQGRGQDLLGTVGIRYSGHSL
In assay [7] the target is human platelet glycoprotein Ib alpha (GPIb α) on human platelets (human) (UniProt P07359). As to the kind of experiment: human whole blood over immobilized protein, parallel-plate flow chamber, 1600 s^-1.

As for GPIb α function-blocking antibody AP-1, the Human platelet accumulation/mm2 in assay [1] was 0 /mm2. In addition, the human platelet thrombus size in VWF^1326R>H mice after pre-treatment with the mAb in assay [2] came to 198 µm^2.

In the case of “function-blocking monoclonal antibody 6D1 (anti-human GPIb α)”, the Human platelet accumulation/mm2 in assay [3] is 0 /mm2. Further, in assay [2], the human platelet thrombus size in VWF^1326R>H mice after pre-treatment with the mAb was 265 µm^2.

With “function-blocking monoclonal antibody 7E3 (anti-human αIIb β3)”, the human platelet thrombus size in VWF^1326R>H mice after pre-treatment with the mAb in assay [4] amounted to 529 µm^2.

“murine plasma VWF containing the 1326R>H mutation (VWF^1326R>H), Q8CIZ8 764-2813” had a translocation velocity of human platelets in assay [5] of 3.5 µm/sec. In assay [2], this substance yielded an average thrombus size, human platelets in homozygous VWF^1326R>H mice of 8950 µm^2; a share of human cells in thrombi, laser injury in homozygous VWF^1326R>H mice of 91.7%; a tail bleeding time of VWF^1326R>H mice infused with human platelets of 182 s. Moreover, in assay [6], the increase in tail bleeding time, heterozygous animals versus WT came out at 1.9 fold; the reduction in thrombi formed on collagen, whole blood of knock-in mice, 1600 s^-1 was found to be 70%; the reduction in thrombus formation on surface-immobilized collagen, whole blood of homozygous mutant mice (FIG. 26) was 80%.

“murine plasma von Willebrand factor (VWF), wild type, Q8CIZ8 764-2813”: in assay [7], the platelet deposition relative to same-species control was determined as 10%. The share of human platelets in total thrombus area, WT mice in assay [2] was 5.7%. Moreover, the ristocetin-induced platelet aggregation (RIPA), murine PRP, 2.5 mg/ml ristocetin in assay [6] is 30%.
